Tests used:
[1] = target: cynomolgus monkey GITR expressed on the cell surface (Macaca fascicularis (cynomolgus monkey)); test: flow cytometry on Jurkat/hCD20/MfGITR cells, 18 pM to 300 nM
[2] = target: human GITR expressed on the cell surface (human) (UniProt Q9Y5U5); test: flow cytometry, AF647 antibody at 200 nM; human primary non-activated CD8+ CD25- T-cells, donor 7900C
[3] = target: cynomolgus monkey GITR expressed on the cell surface (Macaca fascicularis (cynomolgus monkey)); test: flow cytometry, AF647 antibody at 200 nM; cynomolgus primary CD8+ CD69+ T-cells, donor 58946
[4] = target: human GITR expressed on the cell surface (human) (UniProt Q9Y5U5); test: flow cytometry, AF647 antibody at 200 nM; human primary CD4+ CD25+ T-cells, donor 8700C
[5] = target: cynomolgus monkey GITR expressed on the cell surface (Macaca fascicularis (cynomolgus monkey)); test: flow cytometry, AF647 antibody at 200 nM; cynomolgus primary non-activated CD8+ CD69- T-cells, donor 58945
[6] = target: human GITR expressed on the cell surface (human) (UniProt Q9Y5U5); test: flow cytometry, AF647 antibody at 200 nM; human primary CD4+ CD25+ T-cells, donor 2700*
[7] = target: cynomolgus monkey GITR expressed on the cell surface (Macaca fascicularis (cynomolgus monkey)); test: flow cytometry, AF647 antibody at 200 nM; cynomolgus primary CD8+ CD69+ T-cells, donor 58948
[8] = target: cynomolgus monkey GITR expressed on the cell surface (Macaca fascicularis (cynomolgus monkey)); test: flow cytometry, AF647 antibody at 200 nM; cynomolgus primary CD4+ CD69+ T-cells, donor 58945
[9] = target: cynomolgus monkey GITR expressed on the cell surface (Macaca fascicularis (cynomolgus monkey)); test: flow cytometry, AF647 antibody at 200 nM; cynomolgus primary non-activated CD4+ CD69- T-cells, donor 58945
[10] = target: cynomolgus monkey GITR expressed on the cell surface (Macaca fascicularis (cynomolgus monkey)); test: flow cytometry, AF647 antibody at 200 nM; cynomolgus primary CD4+ CD69+ T-cells, donor 58947
[11] = target: cynomolgus monkey GITR expressed on the cell surface (Macaca fascicularis (cynomolgus monkey)); test: flow cytometry, AF647 antibody at 200 nM; cynomolgus primary CD4+ CD69+ T-cells, donor 58946
[12] = target: cynomolgus monkey GITR expressed on the cell surface (Macaca fascicularis (cynomolgus monkey)); test: flow cytometry, AF647 antibody at 200 nM; cynomolgus primary CD8+ CD69+ T-cells, donor 58947
[13] = target: human GITR expressed on the cell surface (human) (UniProt Q9Y5U5); test: flow cytometry, AF647 antibody at 200 nM; human primary non-activated CD4+ CD25- T-cells, donor 7900C
[14] = target: human GITR expressed on the cell surface (human) (UniProt Q9Y5U5); test: flow cytometry, AF647 antibody at 200 nM; human primary CD4+ CD25+ T-cells, donor 26001
[15] = target: human GITR expressed on the cell surface (human) (UniProt Q9Y5U5); test: flow cytometry, AF647 antibody at 200 nM; human primary non-activated CD4+ CD25- T-cells, donor 2700*
[16] = target: hGITR.mmH (soluble monomeric recombinant human GITR ectodomain protein) (human); test: blocking ELISA: 1.5 nM hGITR.mmH pre-incubated with antibody (up to 3 µM), binding to plate-coated hGITR-L
Chain of hGITR.mmH (soluble monomeric recombinant human GITR ectodomain protein) (human) (chain, as listed by the source limits assumed): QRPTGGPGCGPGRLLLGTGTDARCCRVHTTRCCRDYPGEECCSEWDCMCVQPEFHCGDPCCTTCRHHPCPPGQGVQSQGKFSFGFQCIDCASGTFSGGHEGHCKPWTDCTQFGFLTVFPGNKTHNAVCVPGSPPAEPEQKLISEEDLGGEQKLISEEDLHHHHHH

[17] = target: Jurkat/hCD20 cells (human CD20, no GITR; negative control cell line) (human) (UniProt P11836); test: flow cytometry on Jurkat/hCD20 control cells, 18 pM to 300 nM
Chain of Jurkat/hCD20 cells (human CD20, no GITR; negative control cell line) (human) (P11836 whole entry): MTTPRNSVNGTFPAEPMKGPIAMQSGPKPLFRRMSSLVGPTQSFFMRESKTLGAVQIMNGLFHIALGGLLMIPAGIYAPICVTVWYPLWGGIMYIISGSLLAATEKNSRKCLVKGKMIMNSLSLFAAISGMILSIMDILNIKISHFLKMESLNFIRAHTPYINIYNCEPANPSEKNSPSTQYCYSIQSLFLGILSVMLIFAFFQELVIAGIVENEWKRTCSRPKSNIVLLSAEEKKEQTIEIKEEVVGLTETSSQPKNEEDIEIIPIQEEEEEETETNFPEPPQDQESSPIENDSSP

[18] = target: human GITR expressed on the cell surface (human) (UniProt Q9Y5U5); test: flow cytometry, AF647 antibody at 200 nM; human primary CD8+ CD25+ T-cells, donor 26001
[19] = target: human GITR expressed on the cell surface (human) (UniProt Q9Y5U5); test: flow cytometry, AF647 antibody at 200 nM; human primary CD8+ CD25+ T-cells, donor 2700*
[20] = target: cynomolgus monkey GITR expressed on the cell surface (Macaca fascicularis (cynomolgus monkey)); test: flow cytometry, AF647 antibody at 200 nM; cynomolgus primary non-activated CD8+ CD69- T-cells, donor 58947
[21] = target: human GITR expressed on the cell surface (human) (UniProt Q9Y5U5); test: flow cytometry, AF647 antibody at 200 nM; human primary non-activated CD4+ CD25- T-cells, donor 26001
[22] = target: human GITR expressed on the cell surface (human) (UniProt Q9Y5U5); test: flow cytometry on Jurkat/hCD20/hGITR cells; max MFI over secondary antibody alone
[23] = target: cynomolgus monkey GITR expressed on the cell surface (Macaca fascicularis (cynomolgus monkey)); test: flow cytometry, AF647 antibody at 200 nM; cynomolgus primary non-activated CD8+ CD69- T-cells, donor 58948
[24] = target: cynomolgus monkey GITR expressed on the cell surface (Macaca fascicularis (cynomolgus monkey)); test: flow cytometry on Jurkat/hCD20/MfGITR cells; max MFI over secondary antibody alone
[25] = target: human GITR expressed on the cell surface (human) (UniProt Q9Y5U5); test: flow cytometry, AF647 antibody at 200 nM; human primary non-activated CD8+ CD25- T-cells, donor 2700*
[26] = target: cynomolgus monkey GITR expressed on the cell surface (Macaca fascicularis (cynomolgus monkey)); test: flow cytometry, AF647 antibody at 200 nM; cynomolgus primary non-activated CD4+ CD69- T-cells, donor 58947
[27] = target: cynomolgus monkey GITR expressed on the cell surface (Macaca fascicularis (cynomolgus monkey)); test: flow cytometry, AF647 antibody at 200 nM; cynomolgus primary CD4+ CD69+ T-cells, donor 58948
[28] = target: human GITR expressed on the cell surface (human) (UniProt Q9Y5U5); test: flow cytometry, AF647 antibody at 200 nM; human primary CD8+ CD25+ T-cells, donor 7900C
[29] = target: human GITR expressed on the cell surface (human) (UniProt Q9Y5U5); test: flow cytometry, AF647 antibody at 200 nM; human primary non-activated CD4+ CD25- T-cells, donor 8700C
[30] = target: human GITR expressed on the cell surface (human) (UniProt Q9Y5U5); test: flow cytometry, AF647 antibody at 200 nM; human primary CD4+ CD25+ T-cells, donor 7900C
[31] = target: human GITR expressed on the cell surface (human) (UniProt Q9Y5U5); test: flow cytometry on Jurkat/hCD20/hGITR cells, 18 pM to 300 nM
[32] = target: cynomolgus monkey GITR expressed on the cell surface (Macaca fascicularis (cynomolgus monkey)); test: flow cytometry, AF647 antibody at 200 nM; cynomolgus primary non-activated CD8+ CD69- T-cells, donor 58946
[33] = target: human GITR expressed on the cell surface (human) (UniProt Q9Y5U5); test: flow cytometry, AF647 antibody at 200 nM; human primary non-activated CD8+ CD25- T-cells, donor 26001
[34] = target: cynomolgus monkey GITR expressed on the cell surface (Macaca fascicularis (cynomolgus monkey)); test: flow cytometry, AF647 antibody at 200 nM; cynomolgus primary non-activated CD4+ CD69- T-cells, donor 58946
[35] = target: human GITR expressed on the cell surface (human) (UniProt Q9Y5U5); test: flow cytometry, AF647 antibody at 200 nM; human primary non-activated CD8+ CD25- T-cells, donor 8700C
[36] = target: cynomolgus monkey GITR expressed on the cell surface (Macaca fascicularis (cynomolgus monkey)); test: flow cytometry, AF647 antibody at 200 nM; cynomolgus primary CD8+ CD69+ T-cells, donor 58945
[37] = target: human GITR expressed on the cell surface (human) (UniProt Q9Y5U5); test: flow cytometry, AF647 antibody at 200 nM; human primary CD8+ CD25+ T-cells, donor 8700C
[38] = target: cynomolgus monkey GITR expressed on the cell surface (Macaca fascicularis (cynomolgus monkey)); test: flow cytometry, AF647 antibody at 200 nM; cynomolgus primary non-activated CD4+ CD69- T-cells, donor 58948
[39] = target: Jurkat/hCD20 cells (human CD20, no GITR; negative control cell line) (human) (UniProt P11836); test: flow cytometry on Jurkat/hCD20 control cells; max MFI over secondary antibody alone

Chain of human GITR expressed on the cell surface (human) (Q9Y5U5 26-241 limits assumed): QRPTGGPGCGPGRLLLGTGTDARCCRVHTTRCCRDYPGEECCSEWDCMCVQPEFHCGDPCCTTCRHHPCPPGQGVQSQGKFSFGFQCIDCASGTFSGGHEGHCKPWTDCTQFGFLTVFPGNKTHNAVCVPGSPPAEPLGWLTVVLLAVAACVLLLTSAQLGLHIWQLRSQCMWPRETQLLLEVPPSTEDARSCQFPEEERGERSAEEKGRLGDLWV

**Q.** With IgG1 isotype control (antibody) as the substance, how does the Max MFI [1] read?
**A.** 1360 MFI

**Q.** And the Max MFI [2]?
**A.** 1140 MFI

**Q.** What about the Max MFI [3] of the same substance?
**A.** 650 MFI

**Q.** What about the Max MFI [4] of the same substance?
**A.** 1920 MFI

**Q.** And the Max MFI [5]?
**A.** 565 MFI

**Q.** And the Max MFI [6]?
**A.** 2080 MFI

**Q.** And the Max MFI [7]?
**A.** 1130 MFI

**Q.** And the Max MFI [8]?
**A.** 1110 MFI

**Q.** And the Max MFI [9]?
**A.** 730 MFI

**Q.** And the Max MFI [10]?
**A.** 1230 MFI

**Q.** What about the Max MFI [11] of the same substance?
**A.** 803 MFI

**Q.** What about the Max MFI [12] of the same substance?
**A.** 921 MFI

**Q.** And the Max MFI [13]?
**A.** 1330 MFI

**Q.** And the Max MFI [14]?
**A.** 1230 MFI

**Q.** What about the Max MFI [15] of the same substance?
**A.** 1410 MFI

**Q.** What about the % Max Inhibition [16] of the same substance?
**A.** -6%

**Q.** What about the Max MFI [17] of the same substance?
**A.** 1070 MFI

**Q.** What about the Max MFI [18] of the same substance?
**A.** 1100 MFI

**Q.** And the Max MFI [19]?
**A.** 1990 MFI

**Q.** What about the Max MFI [20] of the same substance?
**A.** 601 MFI

**Q.** What about the Max MFI [21] of the same substance?
**A.** 827 MFI

**Q.** What about the Fold Binding [22] of the same substance?
**A.** 1.09 fold

**Q.** And the Max MFI [23]?
**A.** 512 MFI

**Q.** And the Fold Binding [24]?
**A.** 1.1 fold

**Q.** What about the Max MFI [25] of the same substance?
**A.** 1130 MFI

**Q.** What about the Max MFI [26] of the same substance?
**A.** 825 MFI

**Q.** What about the Max MFI [27] of the same substance?
**A.** 1030 MFI

**Q.** And the Max MFI [28]?
**A.** 2090 MFI

**Q.** What about the Max MFI [29] of the same substance?
**A.** 1060 MFI

**Q.** And the Max MFI [30]?
**A.** 2280 MFI

**Q.** And the Max MFI [31]?
**A.** 1090 MFI

**Q.** What about the Max MFI [32] of the same substance?
**A.** 455 MFI

**Q.** And the Max MFI [33]?
**A.** 644 MFI

**Q.** And the Max MFI [34]?
**A.** 650 MFI

**Q.** What about the Max MFI [35] of the same substance?
**A.** 1780 MFI

**Q.** And the Max MFI [36]?
**A.** 1090 MFI

**Q.** And the Max MFI [37]?
**A.** 1970 MFI

**Q.** And the Max MFI [38]?
**A.** 817 MFI

**Q.** And the Fold Binding [39]?
**A.** 1.15 fold
